This assay deals with T1, human recombinant HER3 (coated on ELISA plate) (human, UniProt P21860 20-643).
T1 construct: also called 인간 재조합 HER3
Briefly: ELISA; plate coated with human recombinant HER3; serial dilutions 0-100 μg/ml; goat anti-human IgG F(ab')2-HRP; absorbance at 450 nm.

T1 sequence (P21860 20-643 limits assumed): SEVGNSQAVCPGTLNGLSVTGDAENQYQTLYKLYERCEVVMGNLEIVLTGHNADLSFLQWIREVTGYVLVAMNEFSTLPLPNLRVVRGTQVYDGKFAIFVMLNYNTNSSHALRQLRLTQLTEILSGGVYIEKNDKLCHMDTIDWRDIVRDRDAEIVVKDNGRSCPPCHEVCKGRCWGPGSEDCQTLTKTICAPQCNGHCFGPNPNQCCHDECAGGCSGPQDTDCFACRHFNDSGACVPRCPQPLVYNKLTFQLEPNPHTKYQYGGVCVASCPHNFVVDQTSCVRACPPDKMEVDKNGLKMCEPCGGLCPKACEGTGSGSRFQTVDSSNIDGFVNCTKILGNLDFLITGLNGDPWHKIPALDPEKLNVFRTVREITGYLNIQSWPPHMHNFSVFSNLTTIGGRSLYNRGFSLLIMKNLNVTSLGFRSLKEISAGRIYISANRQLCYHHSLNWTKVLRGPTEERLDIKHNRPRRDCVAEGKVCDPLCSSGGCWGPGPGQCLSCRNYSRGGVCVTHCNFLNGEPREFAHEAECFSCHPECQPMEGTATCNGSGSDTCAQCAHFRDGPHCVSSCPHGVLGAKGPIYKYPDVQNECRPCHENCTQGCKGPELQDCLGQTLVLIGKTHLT

B1: 225Ac-HER3-ARC (Ac225-labelled, DOTA-conjugated anti-HER3 monoclonal antibody, heavy chain SEQ ID NO: 77 and light chain SEQ ID NO: 78) (antibody, V domains shown)
VH: QVQLVESGGGLVKPGGSLRLSCAASGFTFSDYAMSWIRQAPGKGLEWVSTISDGGTYTYYPDSVKGRFTISRDNAKNSLYLQMNSLRAEDTAVYYCAREWGDYDGFDYWGQGTLVTVSS
VL: DIQMTQSPSSLSASVGDRVTITCRASQEISGYLSWYQQKPGKAPKRLIYAASTLDSGVPSRFSGSGSGTEFTLTISSLQPEDFATYYCLQYDSYPYTFGQGTKLEIKR
modifications: DOTA chelator conjugated with p-SCN-Bn-DOTA and chelating actinium-225; sites and chain not stated
notes: also called Ac225 표지된 DOTA-접합된 항-HER3 모노클로날 항체
Consider B1, for which the EC50 was 1.7 ng/mL.

B2: anti-HER3 IgG monoclonal antibody consisting of heavy chain SEQ ID NO: 77 and light chain SEQ ID NO: 78 (unmodified) (antibody, V domains shown)
VH: QVQLVESGGGLVKPGGSLRLSCAASGFTFSDYAMSWIRQAPGKGLEWVSTISDGGTYTYYPDSVKGRFTISRDNAKNSLYLQMNSLRAEDTAVYYCAREWGDYDGFDYWGQGTLVTVSS
VL: DIQMTQSPSSLSASVGDRVTITCRASQEISGYLSWYQQKPGKAPKRLIYAASTLDSGVPSRFSGSGSGTEFTLTISSLQPEDFATYYCLQYDSYPYTFGQGTKLEIKR
notes: It was detected with goat anti-human IgG F(ab')2-HRP; also called 항-HER3; 비변형된 항-HER3 mAb
With B2, the EC50 was 2.2 ng/mL.

The values above are taken from patent KR20230128271A (dated 2023).
